Data: patent US20250236657A1 (TOSOH, published 2025)

Key:
Assay in all cases: affinity HPLC, POROS AAVX resin, linear pH gradient 6.0 to 2.0, AAV2 peak top
[1] = molecular target: AAV2 S264A (adeno-associated virus serotype 2 (AAV2)) (UniProt P03135)
[2] = molecular target: AAV2 D529E (adeno-associated virus serotype 2 (AAV2)) (UniProt P03135)
[3] = molecular target: AAV2 S267A (adeno-associated virus serotype 2 (AAV2)) (UniProt P03135)
[4] = molecular target: AAV2 E499A (adeno-associated virus serotype 2 (AAV2)) (UniProt P03135)
[5] = molecular target: AAV2 T503S (adeno-associated virus serotype 2 (AAV2)) (UniProt P03135)
[6] = molecular target: AAV2 H271Q (adeno-associated virus serotype 2 (AAV2)) (UniProt P03135)
[7] = molecular target: AAV2 Q263A (adeno-associated virus serotype 2 (AAV2)) (UniProt P03135)
[8] = molecular target: AAV2 (wild type), serotype 2 AAV with capsid region VP1 of SEQ ID NO: 99 (adeno-associated virus serotype 2 (AAV2)) (UniProt P03135)
[9] = molecular target: AAV2 N382A (adeno-associated virus serotype 2 (AAV2)) (UniProt P03135)
[10] = molecular target: AAV2 S384A (adeno-associated virus serotype 2 (AAV2)) (UniProt P03135)

Substance: POROS Capture Select AAVX Affinity Resin (manufactured by Thermo Fisher Scientific)
- AAVX column elution time [1]: 59.2 min
- AAVX column elution time [2]: 59.3 min
- AAVX column elution time [3]: 59.3 min
- AAVX column elution time [4]: 59.3 min
- AAVX column elution time [5]: 59.4 min
- AAVX column elution time [6]: 59.3 min
- AAVX column elution time [7]: 59.3 min
- AAVX column elution time [8]: 59.3 min
- AAVX column elution time [9]: 59.2 min
- AAVX column elution time [10]: 59.3 min
